We go through two molecules from PMC9465852, “Comparative analyses of vertebrate CPEB proteins define two subfamilies with coordinated yet distinct functions in post-transcriptional gene regulation”.

Data set [1] addresses T1, CPEB4 (Xenopus laevis, UniProt A0A1L8GV75 1-702). In words: AlphaScreen; 50 nM protein, 0.5-75 nM RNA; equal to or better than CPE-A; 10 mM HEPES pH 7.4, 100 mM KCl, 3 mM MgCl2, 1 mM DTT, 0.2 mg/mL tRNA, 0.1% Tween; room temperature; 50 or 75 nM protein. Conditions: protein: recombinant; tags: 6xHis; label: 3' biotin; single strand.
In data set [2] the target is T1, CPEB4. As to the kind of experiment: AlphaScreen; 50 nM protein, 0.5-75 nM RNA; CPEB4 binds A- and G-CPE equally well; 10 mM HEPES pH 7.4, 100 mM KCl, 3 mM MgCl2, 1 mM DTT, 0.2 mg/mL tRNA, 0.1% Tween; room temperature; 50 or 75 nM protein. The following applies: protein: recombinant; tags: 6xHis; label: 3' biotin; single strand. (Bead proximity is the source of the signal in Alpha formats.)

T1 sequence (A0A1L8GV75 entry or part of it): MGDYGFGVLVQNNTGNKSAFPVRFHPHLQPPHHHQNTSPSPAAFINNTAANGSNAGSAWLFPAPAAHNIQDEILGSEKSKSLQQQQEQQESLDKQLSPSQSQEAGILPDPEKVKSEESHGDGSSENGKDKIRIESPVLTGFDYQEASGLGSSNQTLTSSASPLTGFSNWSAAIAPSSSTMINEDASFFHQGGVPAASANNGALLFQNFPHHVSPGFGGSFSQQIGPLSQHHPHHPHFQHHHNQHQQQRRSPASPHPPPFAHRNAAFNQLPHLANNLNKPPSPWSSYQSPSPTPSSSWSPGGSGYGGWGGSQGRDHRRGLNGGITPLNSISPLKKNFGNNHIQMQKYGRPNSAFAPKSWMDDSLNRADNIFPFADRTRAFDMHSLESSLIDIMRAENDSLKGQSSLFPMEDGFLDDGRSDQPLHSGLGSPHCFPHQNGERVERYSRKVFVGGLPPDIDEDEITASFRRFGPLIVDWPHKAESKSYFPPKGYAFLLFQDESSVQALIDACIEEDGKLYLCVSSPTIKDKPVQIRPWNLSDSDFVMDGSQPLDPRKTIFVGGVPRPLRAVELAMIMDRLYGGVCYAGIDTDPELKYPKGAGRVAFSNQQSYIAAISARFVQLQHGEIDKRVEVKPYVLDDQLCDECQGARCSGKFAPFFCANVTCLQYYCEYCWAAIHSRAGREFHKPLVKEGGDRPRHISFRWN

AGUGUACAGUGUUUUUGUAAGUUUGUUG (ssRNA, 3' biotin) [CPE-G]: in the data set with CPEB4 [1], the binding result is recorded as “binds”.

For the molecule AGUGUACAGUGUUUUUAAUAGUUUGUUG (ssRNA, 3' biotin) [CPE-A], in the data set with CPEB4 [2], the binding result is reported as “binds”.
